The values below are quoted from earlier work in paper PMC11299584.

The series concerns the target ANGPTL3/8 complex (Homo sapiens) (UniProt Q9Y5C1). The series can be described thus: SPR. On the technique in general: SPR reads the build-up and loss of mass on a sensor chip optically.
Chain of UniProt Q9Y5C1 (Q9Y5C1 17-460, chain 1 of 2): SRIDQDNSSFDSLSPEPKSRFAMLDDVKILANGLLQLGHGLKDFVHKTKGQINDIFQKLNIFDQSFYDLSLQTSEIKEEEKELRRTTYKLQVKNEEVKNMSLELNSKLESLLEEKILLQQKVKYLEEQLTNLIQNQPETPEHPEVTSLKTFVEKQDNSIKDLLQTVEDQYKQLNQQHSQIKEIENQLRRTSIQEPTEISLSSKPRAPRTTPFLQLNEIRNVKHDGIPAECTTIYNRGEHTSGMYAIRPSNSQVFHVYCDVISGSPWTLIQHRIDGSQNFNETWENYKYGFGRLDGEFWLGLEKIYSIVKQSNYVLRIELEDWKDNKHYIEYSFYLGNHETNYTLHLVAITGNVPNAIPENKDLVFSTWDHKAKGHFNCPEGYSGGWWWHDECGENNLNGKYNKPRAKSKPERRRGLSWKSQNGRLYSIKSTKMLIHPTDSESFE
Chain of UniProt Q9Y5C1 (Q6UXH0 22-198, chain 2 of 2, further chain): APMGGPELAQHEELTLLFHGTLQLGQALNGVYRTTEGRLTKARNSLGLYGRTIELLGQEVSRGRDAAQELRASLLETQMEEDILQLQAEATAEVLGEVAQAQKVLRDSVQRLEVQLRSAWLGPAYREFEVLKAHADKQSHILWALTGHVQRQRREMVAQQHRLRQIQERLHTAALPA

Turning to APOA5 (from UniProt Q8C7G5), the Kd was 0.53 nM.

By Kd is commonly meant the concentration at which binding is half-saturated.
